How the values were obtained:
Experiment in all cases: ProtoArray, GST-treated control array;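 also: human protein microarray (about 9500 recombinant proteins) incubated overnight with GST alone plus SAM cofactor as the negative control for G9a SET domain methylation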
[1] = target: T1, GPR108-G protein-coupled receptor 108 (GPR108) (human, UniProt Q9NPR9 33-543, limits assumed)
T1 sequence (looked up): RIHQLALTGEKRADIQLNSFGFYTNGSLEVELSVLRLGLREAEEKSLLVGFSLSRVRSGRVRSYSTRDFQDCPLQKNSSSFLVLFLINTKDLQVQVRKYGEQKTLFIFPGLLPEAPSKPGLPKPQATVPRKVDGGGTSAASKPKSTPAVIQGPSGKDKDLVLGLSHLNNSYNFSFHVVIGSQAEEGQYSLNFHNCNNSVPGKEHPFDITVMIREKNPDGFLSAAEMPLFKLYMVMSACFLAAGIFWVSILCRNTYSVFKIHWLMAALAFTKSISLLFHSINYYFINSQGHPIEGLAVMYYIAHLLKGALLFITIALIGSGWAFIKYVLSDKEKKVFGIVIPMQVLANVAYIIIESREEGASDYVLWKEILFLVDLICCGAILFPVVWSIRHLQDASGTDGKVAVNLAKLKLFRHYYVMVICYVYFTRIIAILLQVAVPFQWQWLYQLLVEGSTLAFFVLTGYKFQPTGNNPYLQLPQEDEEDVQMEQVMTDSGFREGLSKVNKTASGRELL

[2] = target: T2, CCL24-C-C motif chemokine 24 (human, UniProt O00175 27-119, limits assumed)
T2 sequence (looked up): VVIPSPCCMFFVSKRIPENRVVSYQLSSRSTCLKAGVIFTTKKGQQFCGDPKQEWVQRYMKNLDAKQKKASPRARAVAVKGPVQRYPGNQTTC

[3] = target: T3, RAB33B-RAB33B, member RAS oncogene family (RAB33B) (human, UniProt Q9H082 1-229)
T3 sequence (looked up): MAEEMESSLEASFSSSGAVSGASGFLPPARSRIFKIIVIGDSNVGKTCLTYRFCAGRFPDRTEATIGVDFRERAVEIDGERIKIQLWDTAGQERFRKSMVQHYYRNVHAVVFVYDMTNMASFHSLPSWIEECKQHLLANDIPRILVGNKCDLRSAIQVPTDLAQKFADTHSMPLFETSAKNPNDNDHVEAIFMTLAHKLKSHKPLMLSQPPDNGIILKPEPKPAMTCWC

[4] = target: T4, TCTA-T-cell leukemia translocation altered gene (TCTA) (human, UniProt P57738 1-103)
T4 sequence (looked up): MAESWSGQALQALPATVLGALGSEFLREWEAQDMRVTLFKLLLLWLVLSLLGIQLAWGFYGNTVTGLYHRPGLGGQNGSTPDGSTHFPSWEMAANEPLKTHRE

[5] = target: T5, LYRM7-Lyrm7 homolog (mouse) (LYRM7) (human, UniProt Q5U5X0 1-104)
T5 sequence (looked up): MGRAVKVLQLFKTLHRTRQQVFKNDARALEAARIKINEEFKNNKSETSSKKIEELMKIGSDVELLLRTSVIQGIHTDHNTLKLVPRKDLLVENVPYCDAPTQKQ

[6] = target: T6, CAB39L-Calcium-binding protein 39-like (human, UniProt Q9H9S4 1-337)
T6 sequence (looked up): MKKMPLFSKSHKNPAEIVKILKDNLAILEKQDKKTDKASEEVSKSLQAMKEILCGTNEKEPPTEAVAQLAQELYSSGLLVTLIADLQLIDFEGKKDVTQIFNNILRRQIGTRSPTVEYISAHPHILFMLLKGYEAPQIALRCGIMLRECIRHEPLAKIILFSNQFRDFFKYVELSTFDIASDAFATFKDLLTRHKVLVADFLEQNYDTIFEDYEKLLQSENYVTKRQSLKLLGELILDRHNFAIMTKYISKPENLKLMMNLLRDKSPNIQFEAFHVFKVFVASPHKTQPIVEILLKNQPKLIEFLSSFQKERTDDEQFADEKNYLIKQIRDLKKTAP

[7] = target: T7, HIC2-Hypermethylated in cancer 2 protein (human, UniProt Q96JB3 1-615, limits assumed)
T7 sequence (looked up): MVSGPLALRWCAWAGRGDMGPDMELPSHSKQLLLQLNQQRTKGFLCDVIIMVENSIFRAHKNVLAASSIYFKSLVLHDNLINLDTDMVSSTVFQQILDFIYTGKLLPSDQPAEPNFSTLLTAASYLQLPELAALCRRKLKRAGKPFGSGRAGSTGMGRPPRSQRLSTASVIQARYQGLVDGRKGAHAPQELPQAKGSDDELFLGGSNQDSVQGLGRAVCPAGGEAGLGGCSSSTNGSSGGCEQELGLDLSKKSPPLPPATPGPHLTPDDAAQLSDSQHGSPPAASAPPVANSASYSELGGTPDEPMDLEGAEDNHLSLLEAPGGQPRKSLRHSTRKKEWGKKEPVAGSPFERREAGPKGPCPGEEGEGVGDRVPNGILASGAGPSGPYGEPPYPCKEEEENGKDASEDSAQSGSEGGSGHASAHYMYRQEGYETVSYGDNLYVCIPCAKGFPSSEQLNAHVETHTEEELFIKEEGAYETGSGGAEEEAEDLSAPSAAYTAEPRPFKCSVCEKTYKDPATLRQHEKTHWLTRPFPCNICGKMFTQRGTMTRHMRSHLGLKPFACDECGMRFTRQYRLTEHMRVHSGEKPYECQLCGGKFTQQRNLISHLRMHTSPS

[8] = target: T8, PTCD2-pentatricopeptide repeat domain 2 (PTCD2) (human, UniProt Q8WV60 1-388, limits assumed)
T8 sequence (looked up): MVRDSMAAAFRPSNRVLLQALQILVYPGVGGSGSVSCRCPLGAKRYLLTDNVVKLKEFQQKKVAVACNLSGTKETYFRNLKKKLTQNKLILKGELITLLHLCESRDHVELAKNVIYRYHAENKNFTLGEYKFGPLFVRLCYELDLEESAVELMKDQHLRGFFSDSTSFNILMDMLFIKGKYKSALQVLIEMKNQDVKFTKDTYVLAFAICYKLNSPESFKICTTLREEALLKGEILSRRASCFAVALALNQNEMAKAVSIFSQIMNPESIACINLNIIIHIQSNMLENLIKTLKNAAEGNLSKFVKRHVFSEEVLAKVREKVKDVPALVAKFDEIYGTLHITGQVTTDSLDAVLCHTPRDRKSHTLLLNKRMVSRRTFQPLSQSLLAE

[9] = target: FTH1-Ferritin heavy chain (human, UniProt P02794 1-183)
[10] = target: CTSZ-Cathepsin Z (human, UniProt Q9UBR2 24-303, limits assumed)
Chain of CTSZ-Cathepsin Z (Q9UBR2 24-303 limits assumed): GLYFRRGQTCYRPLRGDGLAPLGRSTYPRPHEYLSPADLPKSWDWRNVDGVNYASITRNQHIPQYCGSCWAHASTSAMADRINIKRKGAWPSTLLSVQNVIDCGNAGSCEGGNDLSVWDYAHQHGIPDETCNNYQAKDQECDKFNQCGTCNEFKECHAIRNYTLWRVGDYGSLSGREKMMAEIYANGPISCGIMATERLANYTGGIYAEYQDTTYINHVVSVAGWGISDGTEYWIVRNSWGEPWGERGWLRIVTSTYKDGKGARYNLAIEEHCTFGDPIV

Chain of FTH1-Ferritin heavy chain (P02794 whole entry): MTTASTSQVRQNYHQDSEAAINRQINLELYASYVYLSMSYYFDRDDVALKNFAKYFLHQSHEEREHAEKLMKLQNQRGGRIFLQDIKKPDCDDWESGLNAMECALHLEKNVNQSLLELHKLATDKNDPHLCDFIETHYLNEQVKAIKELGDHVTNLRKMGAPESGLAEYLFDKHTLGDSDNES

GST Average SNR [1]: -0.788
GST Average SNR [2]: 0.109
GST Average SNR [3]: 0.0035
GST Average SNR [4]: 1.18
GST Average SNR [5]: 0.278
GST Average SNR [6]: 0.182
GST Average SNR [7]: 0.588
GST Average SNR [8]: 0.679
GST Average SNR [9]: 0.815
GST Average SNR [10]: 1.28
B1: 3× Flag-3×MBT (designed binder)
chain: EEWSSSQPATGEKKECWSWESYLEEQKAITAPVSLFQDSQAVTHNKNGFKLGMKLEGIDPQHPSMYFILTVAEVCGYRLRLHFDGYSECHDFWVNANSPDIHPAGWFEKTGHKLQPPKGYKEEEFSWSQYLRSTRAQAAPKHLFVSQSHSPPPLGFQVGMKLEAVDRMNPSLVCVASVTDVVDSRFLVHFDNWDDTYDYWCDPSSPYIHPVGWCQKQGKPLTPPQDYPDPDNFCWEKYLEETGASAVPTWAFKVRPPHSFLVNMKLEAVDRRNPALIRVASVEDVEDHRIKIHFDGWSHGYDFWIDADHPDIHPAGWCSKTGHPLQPPLGPREPSSASPGG
notes: also called Flag-tagged 3×MBT; 3xFlag-3xMBT; not shown: made by PreScission cleavage of GST-3× Flag-3×MBT

— patent publication US20140274782A1 (Stanford University, published 2014)
